Results on one molecule are retold here after article PMC7717987, “αIIbβ3 variants in ten families with autosomal dominant macrothrombocytopenia: Expanding the mutational and clinical spectrum” (PLoS ONE, 2020).

What all share (conditions): partners not purified
For test [1], the target named is T1, integrin αIIbβ3 (human (endogenous in platelets), UniProt P08514-1 32-1039; P05106-1 27-788).
T1 construct: integrin alpha-IIb (αIIb, GPIIb), human; integrin beta-3 (β3, GPIIIa, CD61), human; The platelets of the heterozygous patients carry wild-type and variant integrin together and are not made molecules; also called glycoprotein (GP) IIb/IIIa receptor complex; GPIIb/IIIa; source: endogenous, on platelets in citrated whole blood of healthy blood donors
The test is described as follows: flow cytometry on cells; citrated whole blood of healthy controls stimulated with ADP (10 μM); platelets gated on FSC/SSC and CD42b; bound fibrinogen detected with FITC anti-bFG (clone 9F9); platelet activation index = (MFI test tube - MFI with EDTA 7 mM) / MFI with EDTA. Background: Flow cytometry measures light scatter and fluorescence of single cells or particles in a stream.

Test [2] deals with T1, integrin αIIbβ3. The test is described as follows: flow cytometry on cells; citrated whole blood of healthy controls stimulated with TRAP-6 (20 μM); platelets gated on FSC/SSC and CD42b; bound fibrinogen detected with FITC anti-bFG (clone 9F9); platelet activation index = (MFI test tube - MFI with EDTA 7 mM) / MFI with EDTA.
Test [3] deals with T1, integrin αIIbβ3. The test is described as follows: flow cytometry on cells; citrated whole blood of healthy controls stimulated with ADP (10 μM); platelets gated on FSC/SSC and CD42b; bound fibrinogen detected with FITC anti-bFG (clone 9F9); platelet activation index = (MFI test tube - MFI with EDTA 7 mM) / MFI with EDTA. This is another data set of the same source.
Test [4] deals with T1, integrin αIIbβ3. The test is described as follows: flow cytometry on cells; citrated whole blood of healthy controls stimulated with TRAP-6 (20 μM); platelets gated on FSC/SSC and CD42b; bound fibrinogen detected with FITC anti-bFG (clone 9F9); platelet activation index = (MFI test tube - MFI with EDTA 7 mM) / MFI with EDTA. The source holds these as a separate data set.

B1: fibrinogen (complex, human (endogenous in whole blood))
chain 1: ADSGEGDFLAEGGGVRGPRVVERHQSACKDSDWPFCSDEDWNYKCPSGCRMKGLIDEVNQDFTNRINKLKNSLFEYQKNNKDSHSLTTNIMEILRGDFSSANNRDNTYNRVSEDLRSRIEVLKRKVIEKVQHIQLLQKNVRAQLVDMKRLEVDIDIKIRSCRGSCSRALAREVDLKDYEDQQKQLEQVIAKDLLPSRDRQHLPLIKMKPVPDLVPGNFKSQLQKVPPEWKALTDMPQMRMELERPGGNEITRGGSTSYGTGSETESPRNPSSAGSWNSGSSGPGSTGNRNPGSSGTGGTATWKPGSSGPGSTGSWNSGSSGTGSTGNQNPGSPRPGSTGTWNPGSSERGSAGHWTSESSVSGSTGQWHSESGSFRPDSPGSGNARPNNPDWGTFEEVSGNVSPGTRREYHTEKLVTSKGDKELRTGKEKVTSGSTTTTRRSCSKTVTKTVIGPDGHKEVTKEVVTSEDGSDCPEAMDLGTLSGIGTLDGFRHRHPDEAAFFDTASTGKTFPGFFSPMLGEFVSETESRGSESGIFTNTKESSSHHPGIAEFPSRGKSSSYSKQFTSSTSYNRGDSTFESKSYKMADEAGSEADHEGTHSTKRGHAKSRPVRGIHTSPLGKPSLSP
chain 2: QGVNDNEEGFFSARGHRPLDKKREEAPSLRPAPPPISGGGYRARPAKAAATQKKVERKAPDAGGCLHADPDLGVLCPTGCQLQEALLQQERPIRNSVDELNNNVEAVSQTSSSSFQYMYLLKDLWQKRQKQVKDNENVVNEYSSELEKHQLYIDETVNSNIPTNLRVLRSILENLRSKIQKLESDVSAQMEYCRTPCTVSCNIPVVSGKECEEIIRKGGETSEMYLIQPDSSVKPYRVYCDMNTENGGWTVIQNRQDGSVDFGRKWDPYKQGFGNVATNTDGKNYCGLPGEYWLGNDKISQLTRMGPTELLIEMEDWKGDKVKAHYGGFTVQNEANKYQISVNKYRGTAGNALMDGASQLMGENRTMTIHNGMFFSTYDRDNDGWLTSDPRKQCSKEDGGGWWYNRCHAANPNGRYYWGGQYTWDMAKHGTDDGVVWMNWKGSWYSMRKMSMKIRPFFPQQ
chain 3: YVATRDNCCILDERFGSYCPTTCGIADFLSTYQTKVDKDLQSLEDILHQVENKTSEVKQLIKAIQLTYNPDESSKPNMIDAATLKSRKMLEEIMKYEASILTHDSSIRYLQEIYNSNNQKIVNLKEKVAQLEAQCQEPCKDTVQIHDITGKDCQDIANKGAKQSGLYFIKPLKANQQFLVYCEIDGSGNGWTVFQKRLDGSVDFKKNWIQYKEGFGHLSPTGTTEFWLGNEKIHLISTQSAIPYALRVELEDWNGRTSTADYAMFKVGPEADKYRLTYAYFAGGDAGDAFDGFDFGDDPSDKFFTSHNGMQFSTWDNDNDKFEGNCAEQDGSGWWMNKCHAGHLNGVYYQGGTYSKASTPNGYDNGIIWATWKTRWYSMKKTTMKIIPFNRLTIGEGQQHHLGGAKQAGDV
notes: fibrinogen alpha chain, human; fibrinogen beta chain, human; fibrinogen gamma chain, human; Plasma fibrinogen of the donor's own blood; no fibrinogen was added; also called FG; soluble FG; source: endogenous, in citrated whole blood of healthy blood donors; copies: + +
With B1, the “platelet activation index (PAI) by bound fibrinogen, median” value in test [1] is 19 fold increase in MFI over EDTA; in test [2] it was 16 fold increase in MFI over EDTA; in test [3], 17 fold increase in MFI over EDTA; in test [4] it was 13 fold increase in MFI over EDTA. For the same molecule, the results for the “platelet activation index (PAI) by bound fibrinogen, mean” value in test [3] and in test [4] were 19 fold increase in MFI over EDTA and 15 fold increase in MFI over EDTA, respectively.
